From US7169567 (GENERAL HOSPITAL, dated 2007)
Where no end group is shown, it is not given here.

Key:
Assay in all cases: cell-based or functional assay
human PTH-1 receptor = biological target: T1, human PTH-1 receptor (human, UniProt Q03431 27-593)
T1 sequence (looked up): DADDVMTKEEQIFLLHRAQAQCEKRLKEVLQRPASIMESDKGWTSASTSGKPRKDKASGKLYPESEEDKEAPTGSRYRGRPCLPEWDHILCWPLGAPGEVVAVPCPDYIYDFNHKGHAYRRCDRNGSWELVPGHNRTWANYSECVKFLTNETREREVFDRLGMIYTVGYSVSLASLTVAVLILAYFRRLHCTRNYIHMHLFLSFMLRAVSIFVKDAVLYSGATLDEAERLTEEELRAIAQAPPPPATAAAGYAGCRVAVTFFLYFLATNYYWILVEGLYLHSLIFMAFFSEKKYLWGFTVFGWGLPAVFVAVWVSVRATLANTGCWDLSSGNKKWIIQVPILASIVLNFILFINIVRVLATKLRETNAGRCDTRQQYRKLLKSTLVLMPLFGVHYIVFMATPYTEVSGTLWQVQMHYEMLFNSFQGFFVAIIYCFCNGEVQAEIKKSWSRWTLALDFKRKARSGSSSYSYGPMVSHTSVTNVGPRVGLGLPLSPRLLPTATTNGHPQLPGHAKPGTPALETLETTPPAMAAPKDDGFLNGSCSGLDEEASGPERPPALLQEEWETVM

[1] = biological target: T2, truncated rat PTH-1 receptor rΔNt (rat, UniProt P25961 182-591)
T2 sequence: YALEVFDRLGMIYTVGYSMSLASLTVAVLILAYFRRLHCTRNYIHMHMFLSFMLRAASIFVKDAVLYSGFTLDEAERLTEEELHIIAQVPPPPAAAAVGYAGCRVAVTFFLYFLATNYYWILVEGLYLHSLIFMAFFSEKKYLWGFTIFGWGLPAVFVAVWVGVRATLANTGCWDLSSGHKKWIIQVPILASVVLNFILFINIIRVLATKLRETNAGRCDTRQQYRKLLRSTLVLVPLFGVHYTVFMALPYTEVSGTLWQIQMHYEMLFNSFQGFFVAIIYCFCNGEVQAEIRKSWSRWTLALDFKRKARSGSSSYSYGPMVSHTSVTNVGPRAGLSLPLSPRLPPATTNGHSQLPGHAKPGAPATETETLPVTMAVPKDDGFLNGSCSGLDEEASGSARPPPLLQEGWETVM

[2] = biological target: intact rat PTH-1 receptor with HA epitope tag (rWT-HA) (rat, UniProt P25961 23-92; P25961 27-591)
intact rat PTH-1 receptor with HA epitope tag (rWT-HA), sequence (P25961 whole entry, one chain of several): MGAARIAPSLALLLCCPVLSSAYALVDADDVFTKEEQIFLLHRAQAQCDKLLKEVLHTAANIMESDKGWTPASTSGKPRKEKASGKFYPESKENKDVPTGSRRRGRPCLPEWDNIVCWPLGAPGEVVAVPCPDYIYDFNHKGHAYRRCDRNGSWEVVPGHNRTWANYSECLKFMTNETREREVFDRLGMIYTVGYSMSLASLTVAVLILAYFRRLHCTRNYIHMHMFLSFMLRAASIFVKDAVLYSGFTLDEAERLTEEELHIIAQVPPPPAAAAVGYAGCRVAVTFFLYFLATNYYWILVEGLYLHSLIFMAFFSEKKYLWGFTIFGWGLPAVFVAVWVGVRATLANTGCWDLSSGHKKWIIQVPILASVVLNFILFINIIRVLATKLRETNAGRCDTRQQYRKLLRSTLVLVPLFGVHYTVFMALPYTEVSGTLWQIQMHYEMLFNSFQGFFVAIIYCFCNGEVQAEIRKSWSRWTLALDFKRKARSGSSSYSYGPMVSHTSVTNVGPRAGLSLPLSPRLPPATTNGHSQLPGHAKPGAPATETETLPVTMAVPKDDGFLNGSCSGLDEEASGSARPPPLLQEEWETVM

- cAMP formation over the basal level (human PTH-1 receptor): ~20 fold
- cAMP potency relative to PTH(1-34) (human PTH-1 receptor): ~5 orders of magnitude
- cAMP potency relative to PTH(1-34) [1]: 2 orders of magnitude
- cAMP formation [2]: 15 fold
Binder: AVSEIQLMHNLGKH-NH2 (peptide, UniProt P04089 32-45, looked up) [rat PTH(1-14)]
